Assay [1] deals with oxytocin ion channel-coupled receptor with the T4 phage lysozyme domain, OXTR(T4L) fused to Kir6.2 (not stated | T4 phage) (UniProt P30559).
Assay [2] has the same target. This is another data set of the same source.

Sequence of oxytocin (P01178 whole entry, looked up, the tested form may be a part): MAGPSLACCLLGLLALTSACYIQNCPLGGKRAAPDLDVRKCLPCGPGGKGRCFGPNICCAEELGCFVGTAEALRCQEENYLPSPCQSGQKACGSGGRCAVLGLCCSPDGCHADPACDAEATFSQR
Sequence of UniProt P30559 (P30559 whole entry, looked up, the tested form may be a part): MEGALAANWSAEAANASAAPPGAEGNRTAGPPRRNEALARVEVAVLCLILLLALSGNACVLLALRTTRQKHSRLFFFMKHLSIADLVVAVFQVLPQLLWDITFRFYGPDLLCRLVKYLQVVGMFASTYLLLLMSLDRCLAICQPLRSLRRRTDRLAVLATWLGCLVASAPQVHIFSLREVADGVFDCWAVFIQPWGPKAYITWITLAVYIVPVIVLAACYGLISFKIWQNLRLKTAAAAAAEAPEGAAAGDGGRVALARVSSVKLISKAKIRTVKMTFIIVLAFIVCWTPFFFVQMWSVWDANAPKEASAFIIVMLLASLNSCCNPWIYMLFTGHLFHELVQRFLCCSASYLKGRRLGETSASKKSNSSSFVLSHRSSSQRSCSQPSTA

In assay [1], “oxytocin (from UniProt P01178 20-28) (peptide)” showed an ICCR activation by 1 μM oxytocin, TEVC, after cholesterol depletion and repletion with cholesterol (% of the control before incubation) of 70; an ICCR activation by 1 μM oxytocin, TEVC, after cholesterol depletion and repletion with cholesteryl hemi-succinate (CHS) (% of the control level before incubation) of 45. Besides, in assay [2], the amplitude of ICCR activation by 1 μM oxytocin, TEVC, after co-incubation with 20 mM MβCD and 5 μM oxytocin for at least 3 h and washing (% of the basal current) came out at 100; the amplitude of ICCR activation by 1 μM oxytocin, TEVC, control without MβCD (Buffer + 5 μM oxytocin, at least 3 h) (% of the basal current) came to 120.

The values above are taken from paper PMC8050779.
